Assays:
Conditions in all cases: both partners purified
Drp1 A395D = target: T1, Drp1 A395D (UniProt O00429-4 1-699, A395D); assay: pull-down; GST-fused MiD51^133-463 or mutants on Glutathione Sepharose 4B, equal molar Drp1, 3 h at 4°C; 20 mM HEPES pH 7.5, 150 mM NaCl, 1% Triton X-100, 1 mM MgCl2; SDS-PAGE, Coomassie staining; no nucleotide
T1 construct: Drp1, GenBank NM_005690; source: E. coli Rosseta (DE3), purified (Ni-NTA, anion exchange, size-exclusion chromatography)

Drp1 G350D/A395D = target: T2, Drp1 G350D/A395D (UniProt O00429-4 1-699, G350D | A395D); assay: as above
T2 construct: Drp1, GenBank NM_005690; source: E. coli Rosseta (DE3), purified (Ni-NTA, anion exchange, size-exclusion chromatography)

Drp1 G350D/AAAA = target: T3, Drp1 G350D/AAAA (UniProt O00429-4 1-699, G350D | 401GPRP404→AAAA); assay: as above
T3 construct: Drp1, GenBank NM_005690; source: E. coli Rosseta (DE3), purified (Ni-NTA, anion exchange, size-exclusion chromatography)

Drp1 S600D = target: T4, Drp1 S600D (UniProt O00429-4 1-699, S600D); assay: as above
T4 construct: Drp1, GenBank NM_005690; S600 is S637 in Drp1 isoform 1 (printed); also called phosphorylation site mutant (related to S637 in Drp1 isoform 1); source: E. coli Rosseta (DE3), purified (Ni-NTA, anion exchange, size-exclusion chromatography)

Drp1 A395D/AAAA = target: T5, Drp1 A395D/AAAA (UniProt O00429-4 1-699, A395D | 401GPRP404→AAAA); assay: as above
T5 construct: Drp1, GenBank NM_005690; source: E. coli Rosseta (DE3), purified (Ni-NTA, anion exchange, size-exclusion chromatography)

Drp1 S579D = target: T6, Drp1 S579D (UniProt O00429-4 1-699, S579D); assay: as above
T6 construct: Drp1, GenBank NM_005690; S579 is S616 in Drp1 isoform 1 (printed); also called phosphorylation site mutant (related to S616 in Drp1 isoform 1); source: E. coli Rosseta (DE3), purified (Ni-NTA, anion exchange, size-exclusion chromatography)

Drp1 K38A = target: T7, Drp1 K38A (UniProt O00429-4 1-699, K38A); assay: as above
T7 construct: Drp1, GenBank NM_005690; also called K38A mutant of Drp1; dominant-negative GTPase mutation K38A; source: E. coli Rosseta (DE3), purified (Ni-NTA, anion exchange, size-exclusion chromatography)

Drp1 G350D = target: T8, Drp1 G350D (UniProt O00429-4 1-699, G350D); assay: as above
T8 construct: Drp1, GenBank NM_005690; source: E. coli Rosseta (DE3), purified (Ni-NTA, anion exchange, size-exclusion chromatography)

[1] = target: T9, Drp1 AAAA mutant (401GPRP404→AAAA) (UniProt O00429-4 1-699, 401GPRP404→AAAA); assay: pull-down; GST-MiD51^133-463 on Glutathione Sepharose; MiD51 and Drp1 mixed first, then no nucleotide (apo) or 1 mM GTP, GMP-PNP, GDP-AlFx or GDP in assay and wash buffer; 20 mM HEPES pH 7.5, 150 mM NaCl, 1% Triton X-100, 1 mM MgCl2; Coomassie staining
T9 construct: Drp1, GenBank NM_005690; source: E. coli Rosseta (DE3), purified (Ni-NTA, anion exchange, size-exclusion chromatography)

[2] = target: T10, Drp1 (dynamin-related protein Drp1), wild type (UniProt O00429-4 1-699); assay: as above
T10 construct: Drp1, GenBank NM_005690; also called wild-type Drp1; source: E. coli Rosseta (DE3), purified (Ni-NTA, anion exchange, size-exclusion chromatography)

Measured: binding result

B1: GST-MiD51^133-463, wild type (domain or fragment, human, UniProt Q9NQG6-1 133-463, looked up)
chain: MSLQEKLLTYYRNRAAIPAGEQARAKQAAVDICAELRSFLRAKLPDMPLRDMYLSGSLYDDLQVVTADHIQLIVPLVLEQNLWSCIPGEDTIMNVPGFFLVRRENPEYFPRGSSYWDRCVVGGYLSPKTVADTFEKVVAGSINWPAIGSLLDYVIRPAPPPEALTLEVQYERDKHLFIDFLPSVTLGDTVLVAKPHRLAQYDNLWRLSLRPAETARLRALDQADSGCRSLCLKILKAICKSTPALGHLTASQLTNVILHLAQEEADWSPDMLADRFLQALRGLISYLEAGVLPSALNPKVNLFAELTPEEIDELGYTLYCSLSEPEVLLQT
notes: also called cytosolic domain of MiD51; source: E. coli BL21 (DE3), purified (Glutathione Sepharose, eluted with reduced glutathione)
binds: all assays above
